The text below walks through data of patent publication US20170051042A1.

Experiment [1] has as its target GPIIb/IIIa on mouse platelets (mouse) (UniProt Q9QUM0). Description: mouse platelet depletion assay, unbound FVIII activity in supernatant; the filing calls this non-specific binding, not occurring through the peptide.
Experiment [2] concerns the target GPIIb/IIIa on human platelets (human) (UniProt P08514). Description: platelet depletion assay, 2.5 nM, plasma lacking FVIII and vWF (condition C); the filing calls this non-specific binding to platelets, not through GPIIb/IIIa.
Experiment [3] addresses purified GPIIb-IIIa (Innovative Research), immobilized (UniProt P08514). Description: solid phase competition of 3.5 nM biotinylated fibrinogen on coated GPIIb-IIIa, N=4.

Sequence of GPIIb/IIIa on mouse platelets (mouse) (Q9QUM0 32-1033, chain 1 of 2): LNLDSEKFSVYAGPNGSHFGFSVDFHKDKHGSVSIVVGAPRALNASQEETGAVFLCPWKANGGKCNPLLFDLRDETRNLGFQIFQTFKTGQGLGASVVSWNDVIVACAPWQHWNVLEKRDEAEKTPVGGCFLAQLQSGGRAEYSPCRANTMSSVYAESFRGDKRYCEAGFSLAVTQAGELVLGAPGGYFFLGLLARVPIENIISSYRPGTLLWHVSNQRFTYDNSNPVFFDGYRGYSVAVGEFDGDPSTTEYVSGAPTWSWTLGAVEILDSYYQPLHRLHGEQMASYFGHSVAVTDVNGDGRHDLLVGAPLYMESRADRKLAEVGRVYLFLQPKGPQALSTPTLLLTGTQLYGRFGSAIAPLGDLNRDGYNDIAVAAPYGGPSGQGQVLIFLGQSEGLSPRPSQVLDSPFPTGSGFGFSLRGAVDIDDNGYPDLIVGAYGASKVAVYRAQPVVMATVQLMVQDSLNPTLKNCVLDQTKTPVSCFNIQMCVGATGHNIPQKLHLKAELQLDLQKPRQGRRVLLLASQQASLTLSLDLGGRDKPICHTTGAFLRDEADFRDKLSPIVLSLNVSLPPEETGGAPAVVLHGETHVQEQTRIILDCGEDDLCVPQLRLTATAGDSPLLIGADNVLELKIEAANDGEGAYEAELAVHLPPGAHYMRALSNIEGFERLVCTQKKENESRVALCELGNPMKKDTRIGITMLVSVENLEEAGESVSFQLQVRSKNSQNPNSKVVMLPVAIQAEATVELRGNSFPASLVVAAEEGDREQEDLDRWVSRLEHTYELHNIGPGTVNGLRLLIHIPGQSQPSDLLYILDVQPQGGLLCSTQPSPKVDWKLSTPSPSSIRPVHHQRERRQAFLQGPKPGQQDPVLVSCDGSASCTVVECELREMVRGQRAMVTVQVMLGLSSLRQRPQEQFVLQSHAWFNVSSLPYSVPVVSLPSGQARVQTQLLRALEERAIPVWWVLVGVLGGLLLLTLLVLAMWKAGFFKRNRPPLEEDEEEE
Sequence of GPIIb/IIIa on mouse platelets (mouse) (O54890 26-787, chain 2 of 2, further chain): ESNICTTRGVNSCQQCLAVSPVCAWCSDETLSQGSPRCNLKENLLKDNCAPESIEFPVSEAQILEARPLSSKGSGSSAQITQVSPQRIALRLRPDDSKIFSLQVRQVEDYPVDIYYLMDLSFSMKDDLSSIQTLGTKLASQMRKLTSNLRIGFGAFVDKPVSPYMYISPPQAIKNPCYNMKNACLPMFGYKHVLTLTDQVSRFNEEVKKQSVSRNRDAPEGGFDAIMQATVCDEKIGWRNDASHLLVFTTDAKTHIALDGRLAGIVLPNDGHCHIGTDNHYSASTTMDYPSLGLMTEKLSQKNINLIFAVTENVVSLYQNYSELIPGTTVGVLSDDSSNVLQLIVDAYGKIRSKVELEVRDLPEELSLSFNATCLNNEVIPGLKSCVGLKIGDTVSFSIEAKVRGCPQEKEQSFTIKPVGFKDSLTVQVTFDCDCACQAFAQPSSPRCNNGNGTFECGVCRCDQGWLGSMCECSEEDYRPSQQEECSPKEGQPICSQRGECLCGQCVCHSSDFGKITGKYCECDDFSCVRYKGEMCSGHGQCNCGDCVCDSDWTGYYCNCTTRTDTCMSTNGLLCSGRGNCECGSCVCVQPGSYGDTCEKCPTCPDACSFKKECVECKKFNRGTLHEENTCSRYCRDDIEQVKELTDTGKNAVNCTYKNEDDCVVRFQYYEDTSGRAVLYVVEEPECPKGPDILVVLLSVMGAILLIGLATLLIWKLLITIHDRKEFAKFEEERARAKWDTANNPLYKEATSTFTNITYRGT

“unmodified recombinant FVIII (from UniProt P00451 20-2351)” came in with a percent of activity bound in experiment [1] of 59%. In addition, the percent of FVIII activity bound in experiment [2] amounted to 35%. Turning to integrilin (peptide), in experiment [3], the half-inhibitory concentration (IC50) was determined as 1.3 nM.

In general, IC50 refers to the concentration needed to halve the response being measured.
